Starred links: 1 amine or outer side, 2 acyl side, 3 side chain; linkers in the order of their positions; H or OH if unused. Non-standard residues stand in square brackets, D forms with d. No end group written: not given here. *: point of attachment. 5‑TAMRA = CN(C)c1ccc2c(-c3ccc(C(=O)*)cc3C(=O)[O-])c3ccc(N(C)C)cc3[o+]c2c1; Propanoyl(3-triazol-4-yl) = O=C(CCc1cn([*:1])nn1)[*:2]; Gly(piperidin-4-yl) = N[C@H](C(=O)O)C1CCNCC1; Pent4ynoyl = C#CCCC(=O)*; Pra = C#CC[C@H](N)C(=O)O

As a reminder, the Ki is the dissociation constant of the complex between target and ligand, obtained from inhibition or displacement. Higher therefore signals weaker binding. By Kd is commonly meant the concentration at which binding is half-saturated. What is called koff is the first-order rate constant of dissociation. As a reminder, the kon is the second-order rate constant of association.

For experiment [1], the target named is T1, human neurotensin receptor type 1 (hNTS1R), stably expressed in CHO cells (human, UniProt P30989 1-418). Put plainly: cell-based or functional assay.
T1 sequence (P30989 whole entry): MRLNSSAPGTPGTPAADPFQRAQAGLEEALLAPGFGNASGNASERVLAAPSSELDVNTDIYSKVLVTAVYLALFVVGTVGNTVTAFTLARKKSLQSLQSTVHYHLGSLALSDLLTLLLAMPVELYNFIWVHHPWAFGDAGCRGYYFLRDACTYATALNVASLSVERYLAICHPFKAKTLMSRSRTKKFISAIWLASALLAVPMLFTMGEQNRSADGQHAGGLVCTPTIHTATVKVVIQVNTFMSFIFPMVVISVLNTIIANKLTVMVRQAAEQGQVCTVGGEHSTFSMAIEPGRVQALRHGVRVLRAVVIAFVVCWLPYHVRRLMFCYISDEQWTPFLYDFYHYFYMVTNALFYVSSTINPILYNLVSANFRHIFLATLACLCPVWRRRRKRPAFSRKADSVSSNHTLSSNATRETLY
In experiment [2] the target is T2, human neurotensin receptor type 1 (hNTS1R), endogenous in HT-29 colon carcinoma cells (human (endogenous in HT-29), UniProt P30989 1-418).
T2 construct: human neurotensin receptor type 1 (hNTS1R), endogenously expressed in HT-29 colon carcinoma cells; also called HT-29 cells; source: endogenous, intact HT-29 colon carcinoma cells
T2 sequence (P30989 whole entry): as above
Put plainly: radioligand binding; competition with [^3H]UR-MK300 at intact hNTS1R-expressing HT-29 cells, 23 ± 1 °C; pIC50 converted to pKi (Cheng–Prusoff). Particulars: one partner purified.

Experiment [3] addresses T2, human neurotensin receptor type 1 …. Description: radioligand binding; saturation binding at intact adherent cells (CHO-hNTS1R or HT-29), DPBS1 with 1% BSA, 23 ± 1 °C; radioligand 1:1 diluted with its cold analogue. Particulars: one partner purified.
For experiment [4], the target named is T1, human neurotensin receptor type 1 …. Described as above. Particulars: one partner purified.
The target is the same in experiment [5]. Put plainly: radioligand binding; association (1.8 nM [^3H]13, 1.2 nM [^3H]18; 96-well plates; biphasic fit) and dissociation (50 mL falcon tubes, started with 25 μM NT(8–13)) at intact suspended CHO-hNTS1R cells, DPBS1, 23 ± 1 °C; kon(fast) and Kd(kin) calculated. Particulars: one partner purified.
Experiment [6] shares this target. Put plainly: radioligand binding; association (1.3 nM [^3H]13, 1.1 nM [^3H]18; biphasic fit) and dissociation (started with 1 μM NT(8–13)) at intact adherent CHO-hNTS1R cells, DPBS1, 23 ± 1 °C; kon(fast) and Kd(kin) calculated. To be noted: one partner purified.
Experiment [7] shares this target. Description: radioligand binding; saturation binding at intact suspended CHO-hNTS1R cells, 96-well plates, filtration, DPBS1 with 1% BSA, 23 ± 1 °C. To be noted: one partner purified.
In experiment [8] the target is T3, hNTS1R displayed on budded baculovirus particles (NTS1R-BBV) (human, UniProt P30989 1-418).
T3 construct: human neurotensin receptor type 1 (hNTS1R) from pcDNA3.1-hNTS1-NlucC, subcloned into pIMACE-CMVintP10; also called hNTS1R-displaying BBVs; hNTS1R-Nluc
T3 sequence (P30989 whole entry): as above
Description: fluorescence polarisation; fluorescence anisotropy, association and dissociation (started with 1 μM SR142948) at hNTS1R-displaying BBVs, 27 °C, DPBS2; kon and Kd(kin) from a fit with koff constrained. Particulars: one partner purified. (In general: Fluorescence polarisation rises when a labelled molecule tumbles more slowly, as on binding a larger partner.)

Experiment [9] deals with T3, hNTS1R displayed on budded baculovirus …. Description: fluorescence polarisation; fluorescence anisotropy, equilibrium binding: fixed ligand (0.3 or 1 nM), increasing amounts of hNTS1R-displaying BBVs, signal at 10 min, 27 °C, DPBS2; unspecific binding with 1 μM SR142948. Particulars: one partner purified.
Experiment [10] addresses T2, human neurotensin receptor type 1 …. Put plainly: flow cytometry on cells; equilibrium saturation binding at intact suspended CHO-hNTS1R or HT-29 cells, 96-well plates, DPBS1, 23 ± 1 °C, homogeneous; unspecific binding with 1 μM NT(8–13). Particulars: one partner purified. For orientation: In flow cytometry, cells or beads pass a laser one at a time.
The target in experiment [11] is T1, human neurotensin receptor type 1 …. The description is as above. To be noted: one partner purified.
For experiment [12] the target is unchanged. Description: flow cytometry on cells; association (1 nM ligand) and dissociation (10 nM preincubation, started with ca. 25 μM NT(8–13)) at intact suspended CHO-hNTS1R cells, 5 mL tubes, DPBS1, 23 ± 1 °C; kon and Kd(kin) calculated. Particulars: one partner purified.
Experiment [13] addresses T4, human neurotensin receptor type 2 (hNTS2R) in homogenates of HEK293T cells (human, UniProt O95665 1-410).
T4 construct: human neurotensin receptor type 2 (hNTS2R); also called HEK293T-hNTS2R cells; source: HEK293T, transiently transfected, homogenates
Description: radioligand binding; competition with [^3H]UR-MK300 at homogenates of HEK293T cells transiently transfected with hNTS2R; Tris buffer (50 mM Tris HCl, 1 mM EDTA, pH 7.4) with 0.1% BSA. Particulars: one partner purified.

In experiment [14] the target is T1, human neurotensin receptor type 1 …. Description: high-content imaging (HCI) of fluorescent ligand on cells; association (2.5 nM ligand) and dissociation (started with 1 μM NT(8–13)) at intact adherent CHO-hNTS1R cells, DPBS1, 23 ± 1 °C; kon = (kobs – koff)/[FL], Kd(kin) = koff/kon. Particulars: one partner purified.
Experiment [15] addresses T2, human neurotensin receptor type 1 …. Put plainly: high-content imaging (HCI) of fluorescent ligand on cells; equilibrium saturation binding at intact adherent CHO-hNTS1R or HT-29 cells, DPBS1 with 0.1% BSA, 23 ± 1 °C, washing step before reading; unspecific binding with 1 μM NT(8–13). To be noted: one partner purified.
Experiment [16] addresses T1, human neurotensin receptor type 1 …. Described as above. To be noted: one partner purified.
For experiment [17] the target is unchanged. Description: radioligand binding; association (2.5 nM) and dissociation (12 nM preincubation, 30 min) at membranes of CHO-hNTS1R cells, DPBS1 with 50 μM GppNHp and 100 μg/mL saponin, 23 °C; kon and Kd(kin) calculated. Particulars: one partner purified.
The target is the same in experiment [18]. Put plainly: radioligand binding; saturation binding at membranes of CHO-hNTS1R cells, DPBS1 with 50 μM GppNHp and 100 μg/mL saponin, 23 °C. To be noted: one partner purified.

T4 sequence (O95665 whole entry): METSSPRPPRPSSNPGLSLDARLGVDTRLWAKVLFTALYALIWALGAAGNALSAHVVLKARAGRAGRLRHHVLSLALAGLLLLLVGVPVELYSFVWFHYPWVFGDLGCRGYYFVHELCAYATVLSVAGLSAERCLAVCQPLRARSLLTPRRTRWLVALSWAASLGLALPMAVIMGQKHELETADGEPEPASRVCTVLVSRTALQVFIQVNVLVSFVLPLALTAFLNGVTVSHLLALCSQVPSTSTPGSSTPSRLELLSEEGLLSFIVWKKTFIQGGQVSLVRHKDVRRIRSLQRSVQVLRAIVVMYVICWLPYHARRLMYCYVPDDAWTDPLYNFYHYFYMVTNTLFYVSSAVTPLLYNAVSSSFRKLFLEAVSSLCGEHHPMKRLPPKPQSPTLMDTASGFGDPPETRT

B1: N^α-(Pent-4-ynoyl)-2-(piperidin-4-yl)-Gly-Pro-N^ω-[(4-aminobutyl)aminocarbonyl]Arg-Arg-Pro-β,β-dimethyl-L-Tyr-Ile-Leu (10a) (peptide)
chain: XPRRPYIL
modifications: N-terminal N^α-(pent-4-ynoyl); position 6 (X) = 2-(piperidin-4-yl)-Gly (pipGly); Arg8 = N^ω-[(4-aminobutyl)aminocarbonyl]Arg; position 11 = β,β-dimethyl-L-Tyr
As for B1, the “EC50 of NTS1R agonism, Fura-2 Ca^2+ assay at CHO-NTS1R cells” value (shortened to “EC50 of NTS1R agonism”) in experiment [1] is 0.32 nM. In addition, the Ki in experiment [2] was 1.1 nM.

B2: 5-TAMRA-labeled, propionylated NT(6–13) derivative 16 (peptide)
chain: {4‑(N-propanoyl)aminobutanoyl}-X[Gly(piperidin-4-yl)]PRRPYIL
modifications: not fully specified (residue 1); printed as *N*^α^-[(4-(*N*-Propanoyl)aminobutanoyl)]-2-(1-(1-*N*-((1-carboxylato-2-(6-(dimethylamino)-3-(dimethyliminio)-3*H*-xanthen-9-yl)phen-5-yl)1-oxomethyl)aminoprop-3-yl-1*H*-1,2,3-triazol-4-yl)methyl)-Gly-2-(piperidin-4-yl)-Gly-Pro-Arg-Arg-Pro-Tyr-Ile-Leu
The molecule B2 displayed a Ki in [2] of 0.77 nM.

B3: [^3H]18, tritiated analogue of the Cy3B-labeled peptide 18 (peptide)
chain: XPRRPYIL
modifications: as 18, with a [^3H]propionyl instead of the propionyl group at the N^ω-carbamoylated Arg8; N-terminal Cy3B through a triazolylpropanoyl group; position 6 (X) = pipGly; position 11 = …
For the molecule B3, the Kd in experiment [3] is 1.9 nM; in experiment [4], 1.1 nM; in experiment [7] it was 1.2 nM. Moreover, the values for the koff in [5] and in experiment [6] were 0.0005 s⁻¹ and 0.000433 s⁻¹, respectively.

B4: 5-TAMRA-labeled, propionylated NT(6–13) derivative 14 (peptide)
peptide: {5‑TAMRA-Propanoyl(3-triazol-4-yl)}-K(propanoyl)PRRPYIL
notes: neurotensin NT(6–13), printed in three-letter code; numbers count on: the mature neurotensin; also called peptide 14; source: synthetic peptide (from 7 by propionylation and click reaction, preparative HPLC)
In experiment [2], B4 came in with a Ki of 1.5 nM.

B5: N^α-(4-Aminobutanoyl)-2-(prop-2-ynyl)-Gly-2-(piperidin-4-yl)-Gly-Pro-Arg-Arg-Pro-Tyr-Ile-Leu (9) (peptide)
chain: {4‑aminobutanoyl}-[Pra][Gly(piperidin-4-yl)]PRRPYIL
In turn, B5 returned a Ki in [2] of 0.33 nM.

B6: N^α-(Pent-4-ynoyl)-Lys-Pro-Arg-Arg-Pro-Tyr-Ile-Leu (7) (peptide)
peptide: Pent4ynoyl-KPRRPYIL
notes: neurotensin NT(6–13), printed in three-letter code; numbers count on: the mature neurotensin; also called peptide 7; source: synthetic peptide (SPPS, preparative HPLC)
For B6, the Ki in [2] turned out to be 0.54 nM.

B7: N^α-(Pent-4-ynoyl)-D-Lys-Pro-Arg-Arg-Pro-Tyr-Ile-Leu (8) (peptide)
peptide: Pent4ynoyl-[dK]PRRPYIL
notes: neurotensin NT(6–13) with D-Lys at position 6, printed in three-letter code; numbers count on: the mature neurotensin; also called peptide 8; source: synthetic peptide (SPPS, preparative HPLC)
B7 registered a Ki in experiment [2] of 0.85 nM.

B8: N^α-(Pent-4-ynoyl)-2-(piperidin-4-yl)-Gly-Pro-N^ω-[(4-aminobutyl)aminocarbonyl]Arg-Arg-Pro-Tyr-Ile-Leu (6) (peptide)
chain: XPRRPYIL
modifications: N-terminal N^α-(pent-4-ynoyl); position 6 (X) = 2-(piperidin-4-yl)-Gly (pipGly); Arg8 = N^ω-[(4-aminobutyl)aminocarbonyl]Arg
For B8, the “EC50 of NTS1R agonism” value in experiment [1] was determined as 0.0065 nM. For the same molecule, the affinity in experiment [2] corresponds to a Ki of 0.64 nM.

B9: 5-TAMRA-labeled, propionylated NT(6–13) derivative 15 (peptide)
peptide: {5‑TAMRA-Propanoyl(3-triazol-4-yl)}-[dK](propanoyl)PRRPYIL
notes: neurotensin NT(6–13) with D-Lys at position 6, printed in three-letter code; numbers count on: the mature neurotensin; also called peptide 15; source: synthetic peptide (from 8 by propionylation and click reaction, preparative HPLC)
B9: the affinity in experiment [2], expressed as Ki, was 3 nM.

B10: 5-TAMRA-labeled, propionylated NT(6–13) derivative 13 (UR-FE051) (peptide)
chain: XPRRPYIL
modifications: N-terminus: 5-TAMRA attached through a 3-(1H-1,2,3-triazol-4-yl)propanoyl group; position 6 (X) = 2-(piperidin-4-yl)-Gly (pipGly); Arg8 = N^ω-[(4-(N-propanoyl)aminobutyl)aminocarbonyl]Arg
Consider B10, for which the dissociation constant (Kd) in [8] was 1 nM; in [9], 1.3 nM; in experiment [10], 0.25 nM; in experiment [11], 2.6 nM; in [12] it was 0.041 nM; in experiment [14], 2.8 nM. Moreover, the Kd in experiment [15] was 4.7 nM; in [16], 1.1 nM. Moreover, the off-rate constant (koff) in experiment [8] is 0.0102 s⁻¹; in experiment [12], 0.000333 s⁻¹; in experiment [14], 0.000733 s⁻¹. In addition, the kon in [8] was 1.67e+07 M⁻¹ s⁻¹; in [12], 8e+06 M⁻¹ s⁻¹; in [14], 267000 M⁻¹ s⁻¹. Besides, the “EC50 of NTS1R agonism” value in experiment [1] was 0.05 nM. Also, the results for the Ki in experiment [2] and in experiment [13] were 1.1 nM and 2.4 nM, respectively.

B11: [^3H]13, tritiated analogue of the 5-TAMRA-labeled peptide 13 (peptide)
chain: XPRRPYIL
modifications: as 13, with a [^3H]propionyl instead of the propionyl group at the N^ω-carbamoylated Arg8; N-terminal 5-TAMRA through a triazolylpropanoyl group; position 6 (X) = pipGly
B11: the Kd in experiment [3] is 1.2 nM; in experiment [4], 1.3 nM; in experiment [17] it was 2.7 nM; in [18], 6.2 nM; in experiment [7], 1.8 nM. In addition, the figures for the koff in experiment [5], in [17] and in experiment [6] were 0.0006 s⁻¹, 0.00617 s⁻¹ and 0.000233 s⁻¹, respectively. In addition, the kon in [17] is 2.17e+06 M⁻¹ s⁻¹.

B12: N^α-(Pent-4-ynoyl)-2-(piperidin-4-yl)-Gly-Pro-N^ω-[(4-aminobutyl)aminocarbonyl]Arg-Arg-Pro-β,β-dimethyl-D-Tyr-Ile-Leu (10b) (peptide)
chain: XPRRPYIL
modifications: N-terminal N^α-(pent-4-ynoyl); position 6 (X) = 2-(piperidin-4-yl)-Gly (pipGly); Arg8 = N^ω-[(4-aminobutyl)aminocarbonyl]Arg; position 11 = β,β-dimethyl-D-Tyr
In experiment [2], B12 registered a Ki of 140 nM.

The values are drawn from publication PMC11440508, “Dually Labeled Neurotensin NTS1R Ligands for Probing Radiochemical and Fluorescence-Based Binding Assays” (Journal of Medicinal Chemistry, 2024).
